Kd data for 1 molecule are collected here from publication doi:10.1101/2024.06.20.599739 (2024).

Targets include linear 11 (); linear 12 (); linear 19 (); linear 15 ().
Holding throughout (test): SPR
A general note: In SPR one partner is held on a chip, and binding of the other changes the refractive index at the surface.

Assay [1] concerns the target EvoBind2 linear design, adversarial selection, length 11.

In general, Kd refers to the concentration at which binding is half-saturated. High values mean weaker binding, low ones tighter binding.

B1: MBP-8xHis-1SCC (semi-synthetic Ribonuclease, PDB ID 1SSC) (enzyme)
chain: KETAAAKFERQHMDSSTSAASSSNYCNQMMKSRNLTKDRCKPVNTFVHESLADVQAVCSQKNVACKNGQTNCYQSYSTMSITDCRETGSSKYPNCAYKTTQANKHIIVACEG
On to B1, for which the Kd in the assay with linear 11 () turned out to be 7.54 µM; with linear 12 (), 0.728 µM; in the assay with linear 19 () it was 7.18 µM; with linear 15 () it was 4.34 µM; in assay [1], 1.21 µM.
